Measurements from CN113185610A (UNIV NORTHWEST A&F, dated 2021).

Biological target: T1, 金黄色葡萄球菌肠毒素B (Staphylococcus aureus, UniProt P01552 28-266)
T1 construct: Coated at 500 ng/mL
T1 sequence: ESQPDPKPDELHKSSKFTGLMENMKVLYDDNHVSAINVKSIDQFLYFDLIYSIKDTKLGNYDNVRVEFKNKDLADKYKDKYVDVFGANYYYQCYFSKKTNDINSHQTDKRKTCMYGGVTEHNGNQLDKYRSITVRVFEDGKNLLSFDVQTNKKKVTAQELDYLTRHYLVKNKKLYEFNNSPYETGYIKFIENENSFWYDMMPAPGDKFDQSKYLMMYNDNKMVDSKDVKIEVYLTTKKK
Assay: ELISA, coated antigen, HRP-conjugated nanobody, OD450

B1: 抗金黄色葡萄球菌肠毒素A纳米抗体Anti-SEA-Nb A150 (VHH)
VHH: ESGGGLVQAGGSLRLSCTTSGFTFDDYAMGWFRQAPGKEREGVSCINWNGANAYYADSVKGRFTISRDNNKNTLYLQMNSLKPEDTALYYCAAGRMPILDDHGYVYWGQGTQVTVS
B1: no binding (tested: 500ng/mL (coated)).
